US20210187071A1, “COMPOSITIONS COMPRISING MDA-7/IL-24 PROTEIN AND METHODS OF USE” (VIRGINIA COMMONWEALTH UNIVERSITY, priority 2017, published 2021)

Assays:
[1] = test system: immortalized normal primary human prostate epithelial cells (RWPE-1); assay: Colony formation (clonal) assay in RWPE-1 cells; format: cell-based; details: 200 cells plated, colonies counted 2 weeks after treatment
Description: (§1) MTT Cell Proliferation and Clonal Assays: Cell proliferation assays were done as described previously (25). Briefly, 2,000 cells were seeded in each well of a 96-well plate and allowed to attach overnight. Cells were treated with complete media in the presence or absence of different concentrations of MDA-7/IL-24 protein. At appropriate time points, cells were further incubated with MTT (3-(4, 5-di methyl thiazol-2-yl)-2, 5 diphenyl tetrazolium bromide) reagents. Finally, DMSO was applied to dissolve the blue salt and the OD was measured at 560 nm (25). For determining long-term effects, colony formation (cloning) assays were performed as described earlier (26). Briefly, 200 cells were plated and allowed to grow in the presence or absence of MDA-7/IL-24 for an additional 15 days. Culture media was replaced with fresh media containing MDA-7/IL-24 protein once a week, two times in total.

[2] = test system: primary bone marrow cells; assay: Live-dead cell assay on primary bone marrow cells; format: cell-based, mouse; details: treated in vitro at different doses
Description: Live-Dead Cell Assay: Live and dead cells were observed by confocal laser microscopy (Zeiss, Germany) after staining with live/dead staining reagent (Invitrogen, Carlsbad, Calif., USA) as per the manufacturer's instructions. The images were analyzed by Zeiss software.
BLI imaging followed development of metastatic lesions in bone.

RAW 264.7 = assay: MTT proliferation assay in RAW 264.7 cells; format: cell-based, mouse; details: His-MDA-7 10 μg/ml, 5 days
Description: as §1, with “Briefly, 200 cells were plated and allowed to grow in the presence or absence of MDA-7/IL-24 for an additional 15 days. Culture media was replaced with fresh media containing MDA-7/IL-24 protein once a week, two times in total.” left out
To investigate the effect of MDA-7/IL-24 on osteoclast differentiation, bone marrow cells from athymic nude mice were isolated and induced to differentiate with RANKL in the presence or absence of MDA-7/IL-24 protein. Five days after induction with RANKL, osteoclast differentiation was measured by counting multinucleated cells. Cells positively stained for TRAP and multinucleated cells were quantified under a light microscope (FIG. 9A). […] Using RAW 264.7 cells, different genetic markers associated with osteoclastic differentiation were monitored (33). […] RNA was isolated after 5 days of treatment and real time PCR quantified expression of TRAP, Cathepsin K (CTSK), and Calcitonin Receptor (CTR) genes. […]

[3] = test system: Akt signaling (p-Akt, p-GSK3β, NFATc1, Mcl-1); assay: Western blotting of Akt signaling cascade in RAW 264.7 cells; format: cell-based, mouse
Text: Western Blotting: Standard protocols were followed for Western blotting assays (24, 27). The primary antibodies used were pAkt, Akt, pGSK3β, GSK3β, NFATc1, cyclin D1 (Cell Signaling Technology, Danvers, Mass., USA) and EF1α (Abeam, Cambridge, United Kingdom). Appropriate secondary antibodies were purchased from Sigma-Aldrich, Inc. St. Louis, Mo., USA).
MDA-7/IL-24 Regulates AKT Signaling in Mouse Macrophage cells: To determine whether MDA-7/IL-24 protein exerts any effect on Akt activation in our model system, RAW 264.7 cells were treated with MDA-7/IL-24 protein in the presence or absence of RANKL. It was observed that RANKL induces Akt activation in RAW 264.7 cells, and this activated Akt was suppressed by MDA-7/IL-24 protein (FIGS. 3A and 11A). […] The effect of Akt inhibition by a PI3K kinase inhibitor (LY294002) was also studied in the signaling cascade involving NFAT, Mcl-1, and Akt (FIGS. 3B and 11B).
A constitutively active form of Akt (MYR-Akt) was also tested. Cells were transfected with MYR-Akt and treated with MDA-7/IL-24.

PC3-ML cells = assay: MTT cell proliferation assay in PC3-ML cells; format: cell-based; details: PC3-ML cells treated with MDA-7/IL-24 protein
Description: Purification of Recombinant His-MDA-7 Protein: IM-PHFA cells were infected with Ad.5-His-mda-7 using a published protocol (24). Cell supernatant was mixed with Ni-NTA (a nickel-nitrilotriacetic) acid slurry to allow binding of MDA-7/IL-24 to the Ni-NTA beads. Twenty-four hours after incubation, the Ni-NTA beads were collected, washed, and the purified MDA-7/IL-24 protein was eluted in imidazole buffer. The protein was validated by western blotting using anti-MDA-7 antibody (Genhunter Corporation, Nashville, Tenn., USA). Biological activity was checked in PC3-ML cells by MTT assay (25).
as §1, with “Culture media was replaced with fresh media containing MDA-7/IL-24 protein once a week, two times in total.” left out

B1: MDA-7/IL-24 protein: Recombinant His-tagged MDA-7/IL-24 protein purified on Ni-NTA from supernatant of IM-PHFA cells infected with Ad.5-His-mda-7 (protein)
chain: QEFHFGPCQVKGVVPQKLWEAFWAVKDTMQAQDNITSARLLQQEVLQNVSDAESCYLVHTLLEFYLKTVFKNYHNRTVEVRTLKSFSTLANNFVLIVSQLQPSQENEMFSIRDSAHRRFLLFRRAFKQLDVEAALTKALGEVDILLTWMQKFYKL
Which results are given for B1?
proliferation capacity of RWPE-1 (colony formation) [1]: without affecting the proliferation capacity; toxicity in primary bone marrow cells ([2]; listed as His-MDA-7): No apparent toxicity; toxicity in primary bone marrow cells ([2]; listed as MDA-7/IL-24): no effect; Proliferation of RAW 264.7 (MTT) (RAW 264.7): not affected; RANKL-induced Akt activation ([3]; MDA-7/IL-24 protein 10 μg/mL, RANKL 100 ng/mL): suppressed; Phosphor-GSK3β, NFATc1, and Mcl-1 expression increased by constitutively active Akt ([3]; RAW 264.7 cells transfected with MYR-Akt): inhibited; Mcl-1 expression ([3]; RAW 264.7 cells, MDA-7/IL-24 treatment): profoundly inhibited Mcl-1 expression; Cell proliferation (MTT assay) (PC3-ML cells): significant inhibition in cell proliferation; Cell proliferation (MTT assay) (PC3-ML cells; listed as MDA-7/IL-24): significantly impaired
